The target of assay [1] is Crotalus durissus terrificus venom. The assay can be described thus: ELISA, venom-coated wells; 1:5.
The target is the same in assay [2]. The assay can be described thus: ELISA, venom-coated wells; 1:25. Background: In an ELISA, binding on a coated surface is turned into a signal by an enzyme label.
The target is the same in assay [3]. The assay is described as follows: ELISA, venom-coated wells; 1:125.
Assay [4] shares this target. The assay is described as follows: ELISA, venom-coated wells; 1:625.
The target is the same in assay [5]. The assay is described as follows: ELISA, venom-coated wells; 1:3125.
For assay [6] the target is unchanged. The assay is described as follows: ELISA, venom-coated wells; 1:62,500.
Assay [7] shares this target. The assay can be described thus: ELISA, venom-coated wells; 1:312,500.
The target is the same in assay [8]. The assay can be described thus: ELISA, venom-coated wells (5 µg/ml); 1:5.
The target is the same in assay [9]. The assay can be described thus: ELISA, venom-coated wells (5 µg/ml); 1:25.
The target is the same in assay [10]. The assay is described as follows: ELISA, venom-coated wells (5 µg/ml); 1:125.
The target is the same in assay [11]. The assay is described as follows: ELISA, venom-coated wells (5 µg/ml); 1:625.
Assay [12] shares this target. The assay is described as follows: ELISA, venom-coated wells (5 µg/ml); 1:3125.
For assay [13] the target is unchanged. The assay can be described thus: ELISA, venom-coated wells (5 µg/ml); undiluted.

With “preimmune chicken IgY (PEG prep) (antibody)”, the ELISA absorbance in [1] is under 0 absorbance; in assay [2], 0.016 absorbance; in [3] it was under 0 absorbance; in assay [4], under 0 absorbance; in assay [5], under 0 absorbance; in [8], under 0 absorbance. The ELISA absorbance in [9] was 0 absorbance; in assay [10] it was 0.003 absorbance; in assay [11], 0 absorbance; in [12], 0.002 absorbance; in [13], 0.003 absorbance. Besides, the ELISA absorbance (absorbance (412 nm filter)) in assay [6] is 0.001; in assay [7] it was 0.01.

The values are drawn from US6613329.
